Measurements: publication PMC8042443, “PKCα-mediated phosphorylation of the diacylglycerol kinase ζ MARCKS domain switches cell migration modes by regulating interactions with Rac1 and RhoA” (The Journal of Biological Chemistry, 2021)

Columns and labels:
[1] = molecular target: T1, GST fusion protein of constitutively active RhoA (RhoA^V14) (UniProt P61586 1-193, RhoA^V14); test: pull-down; GST fusion proteins immobilised on beads, incubated 1 to 2 h at 4 °C with lysates of MEFs expressing HA-tagged DGKζ constructs; washed at least four times with ice-cold lysis buffer; bound DGKζ detected by anti-HA immunoblot; in some panels cells were treated with vehicle, 100 nM PMA, or 1 μM Gö6976 before PMA; settings: one partner purified
T1 construct: RhoA, constitutively active V14 mutant; cDNA from the Missouri S&T cDNA Resource Center, subcloned into pGEX-4T-3; also called GST-RhoA^V14; source: recombinant GST fusion (pGEX-4T-3), purified as described previously
T1 sequence (P61586 other isoform, or with tags, fused parts or gaps RhoA^V14 | RhoA^V14): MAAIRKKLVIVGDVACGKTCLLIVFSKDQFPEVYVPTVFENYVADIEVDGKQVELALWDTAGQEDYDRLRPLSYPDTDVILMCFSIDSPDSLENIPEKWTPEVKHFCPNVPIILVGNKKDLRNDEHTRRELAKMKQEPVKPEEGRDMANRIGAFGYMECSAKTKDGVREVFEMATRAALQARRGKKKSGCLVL

[2] = molecular target: T2, GST fusion protein of inactive RhoA (RhoA^N19) (UniProt P61586 1-193, RhoA^N19); test: as above; settings: one partner purified
T2 construct: cDNA from the Missouri S&T cDNA Resource Center, subcloned into pGEX-4T-3; also called GST-RhoA^N19; GST-RhoN^19; source: recombinant GST fusion (pGEX-4T-3), purified as described previously
T2 sequence (P61586 other isoform, or with tags, fused parts or gaps RhoA^N19 | RhoA^N19): as the sequence (P61586 other isoform, or with tags, fused parts or gaps RhoA^V14 | RhoA^V14) above, with V14G, T19N counted along it

B1: HA-tagged wild-type diacylglycerol kinase ζ (enzyme)
chain: not shown
notes: diacylglycerol kinase ζ (DGKζ), wild type; also called HA-DGKζ; HA-DGKζ^WT; source: MEFs, infected with adenoviral vector or transiently transfected, in lysate
fold change of binding after PMA against vehicle control [1]: ~2 fold | fold change of binding after PMA against vehicle control [2]: ~2 fold
